Laboratory results: patent US20220195041A1 (IMMUNORIZON, published 2022)
Numbering of substitutions follows the chain as printed.

Columns and labels:
[1] = target: T1, human CD3epsilon on Jurkat cells (human, UniProt P07766 22-207); assay: FACS on Jurkat cells (FIG. 25)
T1 construct: Endogenous CD3epsilon on Jurkat T cells, within the CD3/TCR complex; also called Jurkat Cells (Human CD3e); human-CD3e expressing Jurkat cells

[2] = target: T2, rhesus EGFR-Fc (rhesus EGFR extracellular fusion antigen, Cat #EGR-05252, Acro Biosystems) (rhesus, UniProt P55245 25-645); assay: ELISA, coated rhesus EGFR-Fc (FIG. 18B)
T2 construct: extracellular domain; Bought reagent; also called rhesus EGFR antigen; extracellular domain of rhesus EGFR; not shown: Fc part of the bought fusion
Protocol: (§1) The EGFR antigens hEGFR-Fc (Cat #344-ER-050, Bio-techne) and rhesus EGFR-Fc (Cat #EGR-05252, Acro Biosystems)) were diluted to a 0.05 ug/ml concentration in PBS. Human CD3epsilon (hCD3epsilon-His (Cat #10977-H08S, Sino Biological) and cynomolgus CD3epsilon (Cat #CDE-05226, Acro Biosystems)) were diluted to a 0.01 ug/ml concentration in PBS. ELISA plate (Cat #9018, Corning) wells were filled with 100 ul of antigen suspension. Plates were incubated overnight at 4° C. Wells were blocked with 250 ul 1% BSA in PBST for 1 hr at 37° C. and then washed four times with PBST. All washes were done using Biotek (Elx 405). All construct antibodies were diluted to 15 ug/ml and prepared with 3-fold serial dilutions (12 points, including 0 ug/ml). 100 ul/well of diluted antibody construct solution was added to plate and incubated for 1 hr at 37° C. Plates were washed four times with PBST, then 100 ul/well of anti-human kappa light chain-HRP antibody (1:10000) was added and incubated for 0.5 hr at 37° C. Wells were washed 4 times with PBST, then 100 ul/well of TMB substrate was added and plates were incubated at RT for 5 min. 100 ul/well of 1.0 N HCl was added to terminate the reaction. Plates were read using ELISA plate reader at 450 nm wavelength (SpectraMax M5e). Data Analysis was performed using Graphpad Prism 5 software by using nonlinear regression (curve fit): log (agonist) vs. response, agonist is antibody concentration (nM) and response is OD value.

[3] = target: T3, cyno CD3epsilon-His (cynomolgus CD3epsilon extracellular fusion antigen, Cat #CDE-05226, Acro Biosystems) (cynomolgus, UniProt Q95LI5 22-117); assay: ELISA, coated cyno CD3epsilon-His (FIG. 19B)
T3 construct: extracellular domain; Bought reagent; also called cyno CD3e antigen; not shown: His tag
T3 sequence (looked up): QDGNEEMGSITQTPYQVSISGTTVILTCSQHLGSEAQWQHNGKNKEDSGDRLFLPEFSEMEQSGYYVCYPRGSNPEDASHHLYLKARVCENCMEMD
Protocol: as §1

[4] = target: T4, human CD3epsilon-His (human CD3epsilon extracellular fusion antigen, Cat #10977-H08S, Sino Biological) (human, UniProt P07766 22-126); assay: ELISA, coated human CD3epsilon-His (FIG. 19A)
T4 construct: Bought reagent; also called hCD3epsilon-His; hCD3epsilon; not shown: His tag
Protocol: as §1

[5] = target: T5, hEGFR-Fc (EGFR extracellular fusion antigen, Cat #344-ER-050, Bio-techne) (human, UniProt P00533 25-645); assay: ELISA, coated hEGFR-Fc (FIG. 18A)
T5 construct: extracellular domain; Bought reagent; also called human EGFR antigen; extracellular domain of hEGFR; not shown: Fc part of the bought fusion
Protocol: as §1

Measured: binding result

B1: Construct 2: Tri-Specific variable heavy chain-variable light chain (VHVL), anti-CD3epsilon Fab with two anti-EGFR scFv (VH-VL), no regulatory domains (bispecific antibody)
heavy: GGSGGSEVQLVESGGGLVQPGGSLRLSCAASGFTFNTYAMNWVRQAPGKGLEWVARIRSKYNNYATYYADSVKDRFTISRDDSKNTLYLQMNSLRAEDTAVYYCVRHGNFGNSYVSWFAYWGQGTMVTVSSASTKGPSVFPLAPSSKSTSGGTAALGCLVKDYFPEPVTVSWNSGALTSGVHTFPAVLQSSGLYSLSSVVTVPSSSLGTQTYICNVNHKPSNTKVDKRVEPKSCPPCGGGGSQVQLQESGPGLVKPSETLSLTCTVSGGSVSSGDYYWTWIRQSPGKGLEWIGHIYYSGNTNYNPSLKSRLTISIDTSKTQFSLKLSSVTAADTAIYYCVRDRVTGAFDIWGQGTMVTVSSGGGGSGGGGSGGGGSDIQMTQSPSSLSASVGDRVTITCQASQDISNYLNWYQQKPGKAPKLLIYDASNLETGVPSRFSGSGSGTDFTFTISSLQPEDIATYFCQHFDHLPLAFGGGTKVEIK
light: GGSGGSQAVVTQEPSLTVSPGGTVTLTCRSSTGAVTTSNYANWVQQKPGQAPRGLIGGTNKRAPGTPARFSGSLLGGKAALTLSGVQPEDEAEYYCALWYSNLWVFGGGTKLTVLGQPKAAPSVTLFPPSSEELQANKATLVCLISDFYPGAVTVAWKADSSPVKAGVETTTPSKQSNNKYAASSYLSLTPEQWKSHRSYSCQVTHEGSTVEKTVAPTECPPCSGGGSQVQLQESGPGLVKPSETLSLTCTVSGGSVSSGDYYWTWIRQSPGKGLEWIGHIYYSGNTNYNPSLKSRLTISIDTSKTQFSLKLSSVTAADTAIYYCVRDRVTGAFDIWGQGTMVTVSSGGGGSGGGGSGGGGSDIQMTQSPSSLSASVGDRVTITCQASQDISNYLNWYQQKPGKAPKLLIYDASNLETGVPSRFSGSGSGTDFTFTISSLQPEDIATYFCQHFDHLPLAFGGGTKVEIK
notes: Heterodimer of one HC and one LC polypeptide, no Fc; also called TriBody (VHVL); Tribody (VHVL)
binds: all assays above

B2: Construct 4: Precursor Tri-Specific Construct Variable Heavy Variable Light (VHVL), anti-CD3epsilon Fab, two anti-EGFR scFv, HSA and CAP regulatory domains … (bispecific antibody)
heavy: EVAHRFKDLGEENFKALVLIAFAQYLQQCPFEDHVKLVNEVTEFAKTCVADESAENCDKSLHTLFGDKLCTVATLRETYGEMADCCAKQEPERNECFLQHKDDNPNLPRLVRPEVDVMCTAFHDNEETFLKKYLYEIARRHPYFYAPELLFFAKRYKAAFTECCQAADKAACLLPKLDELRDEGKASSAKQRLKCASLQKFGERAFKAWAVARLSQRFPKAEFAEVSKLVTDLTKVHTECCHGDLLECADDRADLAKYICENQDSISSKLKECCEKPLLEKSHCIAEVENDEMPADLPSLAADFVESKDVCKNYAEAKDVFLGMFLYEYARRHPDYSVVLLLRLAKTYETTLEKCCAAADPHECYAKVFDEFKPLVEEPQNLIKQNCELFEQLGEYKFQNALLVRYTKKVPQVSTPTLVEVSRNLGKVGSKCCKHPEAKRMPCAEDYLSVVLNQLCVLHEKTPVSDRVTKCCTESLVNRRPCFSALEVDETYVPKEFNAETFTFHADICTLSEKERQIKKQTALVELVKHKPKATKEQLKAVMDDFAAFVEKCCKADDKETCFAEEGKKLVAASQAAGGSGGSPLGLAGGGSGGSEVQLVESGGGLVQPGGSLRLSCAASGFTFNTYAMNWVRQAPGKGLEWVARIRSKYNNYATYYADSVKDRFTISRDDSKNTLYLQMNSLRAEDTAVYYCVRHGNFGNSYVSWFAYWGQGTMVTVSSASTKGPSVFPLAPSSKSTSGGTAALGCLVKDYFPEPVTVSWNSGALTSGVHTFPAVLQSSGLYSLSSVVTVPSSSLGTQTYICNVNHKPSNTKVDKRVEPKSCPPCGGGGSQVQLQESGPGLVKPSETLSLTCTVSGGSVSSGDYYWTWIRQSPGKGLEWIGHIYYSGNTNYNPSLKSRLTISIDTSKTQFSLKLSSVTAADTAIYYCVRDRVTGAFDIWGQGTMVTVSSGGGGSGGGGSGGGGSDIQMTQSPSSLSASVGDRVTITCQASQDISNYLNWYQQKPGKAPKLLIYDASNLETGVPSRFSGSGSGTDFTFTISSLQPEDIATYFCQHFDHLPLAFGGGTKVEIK
light: QDGNEEMGGITQTPYKVSISGTTVILTGGSGGSPLGLAGGGSGGSQAVVTQEPSLTVSPGGTVTLTCRSSTGAVTTSNYANWVQQKPGQAPRGLIGGTNKRAPGTPARFSGSLLGGKAALTLSGVQPEDEAEYYCALWYSNLWVFGGGTKLTVLGQPKAAPSVTLFPPSSEELQANKATLVCLISDFYPGAVTVAWKADSSPVKAGVETTTPSKQSNNKYAASSYLSLTPEQWKSHRSYSCQVTHEGSTVEKTVAPTECPPCSGGGSQVQLQESGPGLVKPSETLSLTCTVSGGSVSSGDYYWTWIRQSPGKGLEWIGHIYYSGNTNYNPSLKSRLTISIDTSKTQFSLKLSSVTAADTAIYYCVRDRVTGAFDIWGQGTMVTVSSGGGGSGGGGSGGGGSDIQMTQSPSSLSASVGDRVTITCQASQDISNYLNWYQQKPGKAPKLLIYDASNLETGVPSRFSGSGSGTDFTFTISSLQPEDIATYFCQHFDHLPLAFGGGTKVEIK
notes: Uncleaved precursor (no MMP9 treatment); also called ProTriBody-C (VHVL); Pro-Tribody-C (VHVL)
binds: [2] | [5]

B3: Construct 6: Precursor Tri-Specific Non-Cleavable (NC) Variable Heavy Variable Light (VHVL), anti-CD3epsilon Fab, two anti-EGFR scFv, HSA and CAP regulatory … (bispecific antibody)
heavy: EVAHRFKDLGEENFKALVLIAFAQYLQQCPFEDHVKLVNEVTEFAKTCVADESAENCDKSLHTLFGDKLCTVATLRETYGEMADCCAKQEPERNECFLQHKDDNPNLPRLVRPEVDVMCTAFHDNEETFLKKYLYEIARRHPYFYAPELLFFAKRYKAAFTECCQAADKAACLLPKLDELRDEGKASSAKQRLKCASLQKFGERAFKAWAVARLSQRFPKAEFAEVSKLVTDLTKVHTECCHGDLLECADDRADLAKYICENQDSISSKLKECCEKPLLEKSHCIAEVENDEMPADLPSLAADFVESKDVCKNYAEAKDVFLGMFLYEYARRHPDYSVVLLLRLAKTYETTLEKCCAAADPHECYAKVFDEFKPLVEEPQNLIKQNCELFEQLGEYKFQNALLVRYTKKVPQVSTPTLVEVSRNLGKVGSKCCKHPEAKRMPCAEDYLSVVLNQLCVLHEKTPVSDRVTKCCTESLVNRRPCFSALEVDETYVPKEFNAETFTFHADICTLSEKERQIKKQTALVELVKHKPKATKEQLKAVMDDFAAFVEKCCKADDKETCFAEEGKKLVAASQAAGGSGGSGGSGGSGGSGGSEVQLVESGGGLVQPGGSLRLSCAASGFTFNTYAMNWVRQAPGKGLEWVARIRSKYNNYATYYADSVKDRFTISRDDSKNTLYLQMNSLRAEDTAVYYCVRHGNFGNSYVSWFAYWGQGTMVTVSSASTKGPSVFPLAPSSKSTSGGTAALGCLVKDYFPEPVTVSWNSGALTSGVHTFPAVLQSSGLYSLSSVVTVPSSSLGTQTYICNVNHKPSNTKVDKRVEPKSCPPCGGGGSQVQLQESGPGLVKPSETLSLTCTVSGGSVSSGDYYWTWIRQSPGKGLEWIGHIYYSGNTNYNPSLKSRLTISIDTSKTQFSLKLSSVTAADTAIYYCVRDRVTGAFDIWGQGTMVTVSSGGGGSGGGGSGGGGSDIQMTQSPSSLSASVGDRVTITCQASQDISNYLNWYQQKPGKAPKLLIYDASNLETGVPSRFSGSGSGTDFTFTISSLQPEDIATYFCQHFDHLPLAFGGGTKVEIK
light: B2 light with P34G, L35G, G36S, L37G, A38G, G39S
notes: Not cleaved by MMP9, so the same molecule stands in the assays with and without MMP9; also called ProTriBody-NC (VHVL); Pro-Tribody-NC (VHVL)
binds: [2] | [5]

B4: Construct 3: Precursor Tri-Specific Variable Light-Variable Heavy (VLVH), anti-CD3epsilon Fab, two anti-EGFR scFv, HSA and CAP regulatory domains linked by … (bispecific antibody)
heavy: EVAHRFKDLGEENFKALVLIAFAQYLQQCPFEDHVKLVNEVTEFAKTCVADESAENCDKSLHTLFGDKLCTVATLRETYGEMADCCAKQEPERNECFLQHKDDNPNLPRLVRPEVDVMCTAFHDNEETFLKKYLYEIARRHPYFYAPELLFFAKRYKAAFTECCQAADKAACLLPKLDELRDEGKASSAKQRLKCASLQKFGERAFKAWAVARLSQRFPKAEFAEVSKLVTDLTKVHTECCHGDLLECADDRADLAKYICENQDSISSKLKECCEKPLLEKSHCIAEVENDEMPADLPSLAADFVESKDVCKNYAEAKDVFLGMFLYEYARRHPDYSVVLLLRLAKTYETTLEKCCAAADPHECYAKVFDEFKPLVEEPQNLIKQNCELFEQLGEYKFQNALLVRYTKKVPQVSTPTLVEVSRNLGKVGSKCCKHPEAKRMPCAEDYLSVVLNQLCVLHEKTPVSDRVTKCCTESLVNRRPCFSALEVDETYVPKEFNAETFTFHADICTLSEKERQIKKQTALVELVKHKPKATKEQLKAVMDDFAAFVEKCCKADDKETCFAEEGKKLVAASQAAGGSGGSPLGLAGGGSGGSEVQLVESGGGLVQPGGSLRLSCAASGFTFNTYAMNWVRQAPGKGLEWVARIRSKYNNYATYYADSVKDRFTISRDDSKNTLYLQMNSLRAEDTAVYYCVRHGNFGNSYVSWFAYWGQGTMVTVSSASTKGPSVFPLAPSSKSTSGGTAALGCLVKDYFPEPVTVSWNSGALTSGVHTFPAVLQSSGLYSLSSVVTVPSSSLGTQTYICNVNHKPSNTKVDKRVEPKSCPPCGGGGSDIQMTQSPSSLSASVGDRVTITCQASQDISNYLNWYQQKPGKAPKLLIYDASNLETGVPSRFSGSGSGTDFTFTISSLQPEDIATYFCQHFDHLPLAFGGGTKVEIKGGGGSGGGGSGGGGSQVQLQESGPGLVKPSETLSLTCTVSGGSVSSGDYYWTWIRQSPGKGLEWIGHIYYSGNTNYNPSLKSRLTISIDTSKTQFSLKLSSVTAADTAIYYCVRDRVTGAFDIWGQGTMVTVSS
light: QDGNEEMGGITQTPYKVSISGTTVILTGGSGGSPLGLAGGGSGGSQAVVTQEPSLTVSPGGTVTLTCRSSTGAVTTSNYANWVQQKPGQAPRGLIGGTNKRAPGTPARFSGSLLGGKAALTLSGVQPEDEAEYYCALWYSNLWVFGGGTKLTVLGQPKAAPSVTLFPPSSEELQANKATLVCLISDFYPGAVTVAWKADSSPVKAGVETTTPSKQSNNKYAASSYLSLTPEQWKSHRSYSCQVTHEGSTVEKTVAPTECPPCSGGGSDIQMTQSPSSLSASVGDRVTITCQASQDISNYLNWYQQKPGKAPKLLIYDASNLETGVPSRFSGSGSGTDFTFTISSLQPEDIATYFCQHFDHLPLAFGGGTKVEIKGGGGSGGGGSGGGGSQVQLQESGPGLVKPSETLSLTCTVSGGSVSSGDYYWTWIRQSPGKGLEWIGHIYYSGNTNYNPSLKSRLTISIDTSKTQFSLKLSSVTAADTAIYYCVRDRVTGAFDIWGQGTMVTVSS
notes: Uncleaved precursor, about 170 kDa; also called ProTriBody-C EGFR (VL-VH); Precursor Tri-body construct (VL-VH)
not listed: [1]
binds: all other assays above

B5: Construct 5: Precursor Tri-Specific Non-Cleavable (NC) Variable Light Variable Heavy (VLVH), anti-CD3epsilon Fab, two anti-EGFR scFv, HSA and CAP regulatory … (bispecific antibody)
heavy: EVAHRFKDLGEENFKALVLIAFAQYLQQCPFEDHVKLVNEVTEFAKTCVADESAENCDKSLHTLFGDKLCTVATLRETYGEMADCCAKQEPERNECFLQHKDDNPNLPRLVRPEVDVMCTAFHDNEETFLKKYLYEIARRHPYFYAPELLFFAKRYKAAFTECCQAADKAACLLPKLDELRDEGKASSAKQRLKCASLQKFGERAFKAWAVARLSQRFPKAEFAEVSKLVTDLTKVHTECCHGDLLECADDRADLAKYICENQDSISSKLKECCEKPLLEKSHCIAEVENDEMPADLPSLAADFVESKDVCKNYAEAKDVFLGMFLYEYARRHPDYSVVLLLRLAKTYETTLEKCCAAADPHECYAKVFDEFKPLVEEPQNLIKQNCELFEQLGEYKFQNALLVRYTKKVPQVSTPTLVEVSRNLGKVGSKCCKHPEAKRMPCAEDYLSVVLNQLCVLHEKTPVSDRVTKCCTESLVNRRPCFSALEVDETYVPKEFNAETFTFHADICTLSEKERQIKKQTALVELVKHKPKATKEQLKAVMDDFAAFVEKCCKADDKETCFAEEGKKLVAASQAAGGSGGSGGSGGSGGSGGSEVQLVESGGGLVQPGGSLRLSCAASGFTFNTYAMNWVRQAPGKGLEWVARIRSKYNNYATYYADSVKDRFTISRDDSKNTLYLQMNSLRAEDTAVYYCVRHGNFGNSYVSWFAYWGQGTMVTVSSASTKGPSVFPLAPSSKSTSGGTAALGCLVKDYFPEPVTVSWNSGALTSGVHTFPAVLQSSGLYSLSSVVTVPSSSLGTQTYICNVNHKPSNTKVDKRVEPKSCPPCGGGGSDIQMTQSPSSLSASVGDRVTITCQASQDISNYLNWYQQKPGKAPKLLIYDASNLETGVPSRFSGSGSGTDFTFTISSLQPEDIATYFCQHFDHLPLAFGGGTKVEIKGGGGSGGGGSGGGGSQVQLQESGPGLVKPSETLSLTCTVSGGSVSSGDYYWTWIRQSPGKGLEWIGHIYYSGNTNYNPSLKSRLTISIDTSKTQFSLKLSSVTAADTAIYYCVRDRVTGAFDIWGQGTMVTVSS
light: B4 light with P34G, L35G, G36S, L37G, A38G, G39S
notes: also called ProTriBody-NC EGFR (VL-VH); Non-Cleavable Precursor Tri-body construct (VL-VH)
not listed: [1]
binds: all other assays above

B6: Construct 1: Tri-Specific variable light chain-variable heavy chain (VLVH), anti-CD3epsilon Fab with two anti-EGFR scFv (VL-VH), no regulatory domains (bispecific antibody)
heavy: GGSGGSEVQLVESGGGLVQPGGSLRLSCAASGFTFNTYAMNWVRQAPGKGLEWVARIRSKYNNYATYYADSVKDRFTISRDDSKNTLYLQMNSLRAEDTAVYYCVRHGNFGNSYVSWFAYWGQGTMVTVSSASTKGPSVFPLAPSSKSTSGGTAALGCLVKDYFPEPVTVSWNSGALTSGVHTFPAVLQSSGLYSLSSVVTVPSSSLGTQTYICNVNHKPSNTKVDKRVEPKSCPPCGGGGSDIQMTQSPSSLSASVGDRVTITCQASQDISNYLNWYQQKPGKAPKLLIYDASNLETGVPSRFSGSGSGTDFTFTISSLQPEDIATYFCQHFDHLPLAFGGGTKVEIKGGGGSGGGGSGGGGSQVQLQESGPGLVKPSETLSLTCTVSGGSVSSGDYYWTWIRQSPGKGLEWIGHIYYSGNTNYNPSLKSRLTISIDTSKTQFSLKLSSVTAADTAIYYCVRDRVTGAFDIWGQGTMVTVSS
light: GGSGGSQAVVTQEPSLTVSPGGTVTLTCRSSTGAVTTSNYANWVQQKPGQAPRGLIGGTNKRAPGTPARFSGSLLGGKAALTLSGVQPEDEAEYYCALWYSNLWVFGGGTKLTVLGQPKAAPSVTLFPPSSEELQANKATLVCLISDFYPGAVTVAWKADSSPVKAGVETTTPSKQSNNKYAASSYLSLTPEQWKSHRSYSCQVTHEGSTVEKTVAPTECPPCSGGGSDIQMTQSPSSLSASVGDRVTITCQASQDISNYLNWYQQKPGKAPKLLIYDASNLETGVPSRFSGSGSGTDFTFTISSLQPEDIATYFCQHFDHLPLAFGGGTKVEIKGGGGSGGGGSGGGGSQVQLQESGPGLVKPSETLSLTCTVSGGSVSSGDYYWTWIRQSPGKGLEWIGHIYYSGNTNYNPSLKSRLTISIDTSKTQFSLKLSSVTAADTAIYYCVRDRVTGAFDIWGQGTMVTVSS
notes: Heterodimer of one HC and one LC polypeptide (about 100 kDa), no Fc; also called TriBody (VLVH); Tribody EGFR (VL-VH)
not listed: [1]
binds: all other assays above
